We go through 2 proteins from article doi:10.1101/2024.03.22.586355, “Dynamic fibrillar assembly of αB-crystallin induced by perturbation of the conserved NT-IXI motif resolved by cryo-EM” (bioRxiv, 2024).

Series [1] deals with the molecule itself. Description: cryo-EM structure; αB-AXA fibrils elongated at room temperature for about four weeks, dialysed (1 MDa m.w.c.o.), 0.5 mg/mL; helical and local refinement with D2 symmetry, 3.4 Å.
Series [2] concerns the molecule itself. Description: SEC + other: negative-stain electron microscopy; Superose-6 24 mL column; peak fractions examined by negative-stain EM with 2D class averaging; 20 mM HEPES pH 7.4, 150 mM NaCl, 1 mM EDTA.

B1: human αB-crystallin NT-AXA variant (natural protein, UniProt P02511 1-175, looked up)
chain: MDAAAHHPWIRRPFFPFHSPSRLFDQFFGEHLLESDLFPTSTSLSPFYLRPPSFLRAPSWFDTGLSEMRLEKDRFSVNLDVKHFSPEELKVKVLGDVIEVHGKHEERQDEHGFISREFHRKYRIPADVDPLTITSSLSSDGVLTVNGPRKQVSGPERTIPITREEKPAVTAAPKK
notes: human αB-crystallin (HSPB5, CRYAB), 20.2 kDa subunit; The cryo-EM model covers residues 75-161; the last 14 residues are not modelled; also called αB-AXA; source: E. coli BL21, purified (Sephacryl 300 SEC, MonoQ ion exchange), no purification tags
Consider B1, for which the binding result in series [1] is listed as “binds”.

B2: human wildtype αB-crystallin (natural protein, UniProt P02511 1-175, looked up)
chain: MDIAIHHPWIRRPFFPFHSPSRLFDQFFGEHLLESDLFPTSTSLSPFYLRPPSFLRAPSWFDTGLSEMRLEKDRFSVNLDVKHFSPEELKVKVLGDVIEVHGKHEERQDEHGFISREFHRKYRIPADVDPLTITSSLSSDGVLTVNGPRKQVSGPERTIPITREEKPAVTAAPKK
notes: human αB-crystallin (HSPB5, CRYAB), 20.2 kDa subunit; pET plasmid containing the human αB-crystallin gene; Polydisperse cage-like oligomers; also called αB-wt; αB-WT; source: E. coli BL21, purified (Sephacryl 300 SEC, MonoQ ion exchange), no purification tags
With B2, in series [2], the binding result is “binds”.
